Measurements from patent US12319739 (F STAR DELTA, dated 2025).
Numbering of substitutions follows the chain as printed.

T1: cMSLN-His-Avi (cynomolgus, single biotin on the Avi tag in the biotinylated form)
T1 construct: Monomeric; also called cyno MSLN-His-Avi; cMSLN-Avi-His
T1 chain: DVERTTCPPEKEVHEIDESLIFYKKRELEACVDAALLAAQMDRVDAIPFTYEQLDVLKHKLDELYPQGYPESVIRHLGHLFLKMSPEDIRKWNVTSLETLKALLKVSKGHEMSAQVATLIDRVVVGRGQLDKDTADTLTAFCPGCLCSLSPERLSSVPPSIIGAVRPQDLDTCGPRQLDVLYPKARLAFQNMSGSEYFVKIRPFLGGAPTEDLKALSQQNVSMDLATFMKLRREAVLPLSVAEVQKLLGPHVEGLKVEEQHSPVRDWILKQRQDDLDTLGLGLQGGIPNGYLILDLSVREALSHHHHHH

B1: 20H4.9 (antibody, V domains shown)
VH: QVQLQQWGAGLLKPSETLSLTCAVYGGSFSGYYWSWIRQSPEKGLEWIGEINHGGYVTYNPSLESRVTISVDTSKNQFSLKLSSVTAADTAVYYCARDYGPGNYDWYFDLWGRGTLVTVSS
VL: EIVLTQSPATLSLSPGERATLSCRASQSVSSYLAWYQQKPGQAPRLLIYDASNRATGIPARFSGSGSGTDFTLTISSLEPEDFAVYYCQQRSNWPPALTFGGGTKVEIKR
B2: FS22-172-003-AA/FS28-256-021 (bispecific antibody, human IgG1, kappa, L234A L235A, V domains shown)
VH: EVQLLESGGGLVQPGGSLRLSCAASGFTFTHTYMSWVRQAPGKGLEWVSNISPTYSTTNYADSVKGRFTISRDNNKNTLYLQMNSLRAEDTAVYYCARYNAYHAALDYWGQGTLVTVSS
VL: EIVLTQSPGTLSLSPGERATLSCRASQSVSSSYLAWYQQKPGQAPRLLIYGASSRATGIPDRFSGSGSGTDFTLTISRLEPEDFAVYYCQQHNQYPNTFGQGTKVEIKR
notes: IgG1 mAb^2 with LALA
B3: FS28-256-274 (in CD137 mAb^2 format) (bispecific antibody, V domains shown)
VH: B2 VH with N50T
VL: B2 VL with H92T, N93V, Q94P, N97Y
notes: Position 55 is IMGT numbering
B4: FS22-172-003-AA/FS28-256-272 (bispecific antibody, human IgG1, kappa, L234A L235A, V domains shown)
VH: B2 VH with N50H
VL: B2 VL with H92T, N93V, Q94P, N97Y
notes: IgG1 mAb^2 with LALA
B5: FS22-172-003-AA/FS28-256-026 (bispecific antibody, human IgG1, kappa, L234A L235A, V domains shown)
VH: B2 VH with H31Q, N75S, H103Q, A104I, A105G
VL: B2 VL with H92A, N93L, Q94G, N97H
notes: IgG1 mAb^2 with LALA
B6: FS22-172-003-AA/FS28-256-027 (bispecific antibody, human IgG1, kappa, L234A L235A, V domains shown)
VH: B2 VH
VL: B2 VL with H92T, N93V, Q94P, N97Y
notes: IgG1 mAb^2 with LALA
B7: FS22-172-003-AA/FS28-256-024 (bispecific antibody, human IgG1, kappa, L234A L235A, V domains shown)
VH: B2 VH
VL: B2 VL with H92A, N93L, Q94G, N97H
notes: IgG1 mAb^2 with LALA
B8: FS22-172-003-AA/FS28-256-023 (bispecific antibody, human IgG1, kappa, L234A L235A, V domains shown)
VH: B2 VH with H31Q, N75S, H103Q, A104I, A105G
VL: B2 VL
notes: IgG1 mAb^2 with LALA

Key:
[1] = molecular target: T2, human CD137 on primary human CD8+ T cells (human, UniProt Q07011 24-255); assay: cell-based or functional assay
T2 sequence (Q07011 24-255): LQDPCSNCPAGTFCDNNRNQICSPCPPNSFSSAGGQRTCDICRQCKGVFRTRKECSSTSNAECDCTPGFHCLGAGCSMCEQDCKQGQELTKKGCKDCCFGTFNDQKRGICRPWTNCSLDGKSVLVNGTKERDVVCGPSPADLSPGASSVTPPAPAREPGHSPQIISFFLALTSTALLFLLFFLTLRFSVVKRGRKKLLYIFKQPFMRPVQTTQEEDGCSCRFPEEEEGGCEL

[2] = molecular target: T3, endogenous cell surface human MSLN (human, UniProt Q13421 296-598); assay: flow cytometry, NCI-H226 cells + 20 nM soluble MSLN
T3 construct: whole, on cells; The cell line is named under assay; also called cell-surface MSLN on NCI-H226, OVCAR-3 and AsPC-1 cells
T3 sequence (Q13421 other isoform, or with tags, fused parts or gaps limits assumed): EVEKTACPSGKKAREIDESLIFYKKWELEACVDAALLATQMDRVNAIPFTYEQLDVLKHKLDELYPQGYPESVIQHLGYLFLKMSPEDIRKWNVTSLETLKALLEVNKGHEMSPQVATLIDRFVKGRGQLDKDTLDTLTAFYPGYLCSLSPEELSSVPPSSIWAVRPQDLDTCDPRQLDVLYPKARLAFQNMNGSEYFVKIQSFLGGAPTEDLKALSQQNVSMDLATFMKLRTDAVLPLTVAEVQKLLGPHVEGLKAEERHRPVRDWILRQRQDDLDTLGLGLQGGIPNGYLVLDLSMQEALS
Protocol: (§1) To confirm binding to cell surface MSLN, mAb² listed in Table 9 were analysed for binding to endogenous cell surface MSLN on the human lung cancer cell line NCI-H226. In addition, and because MSLN can be found in blood in a shed soluble form, there is a risk that this circulating MSLN might affect exposure and ultimately potency of our mAb². To confirm that presence of soluble MSLN has minimal impact, additional binding experiments to NCI-H226 cells were performed in the presence of 20 nM soluble MSLN which is 10-20 times the level of soluble MSLN found to be of diagnostic value for defining malignant mesothelioma and lung cancer patients as MSLN positive (Cui et al., 2014). Briefly, NCI-H226 cells (ATCC CRL-5826) were harvested from T175 cell culture flasks using Accutase (Gibco, A11105-01).
(§2) In both cases, cells were centrifuged at 1200 rpm for 3 min and resuspended in ice cold FACS buffer made up of DPBS (Life Technologies, 14190169) and 1% BSA (Sigma-Aldrich, A7906) at 2×10⁶ cells/ml and 50 μl per well was seeded in a 96-well V-bottom plate (Costar, 3894). All antibodies tested were diluted in FACS buffer in 120 μl at a concentration range of 0.01-200 nM (4-fold dilutions). The NCI-H226 cells were then centrifuged, supernatant removed and cells resuspended in 100 μl of each mAb dilution and incubated at 4° C. for 45 min. Cells were washed twice by centrifugation with 150 μl FACS buffer, resuspended in 100 μl containing goat anti-human IgG (γ-chain specific) F(ab')2 fragment-R-Phycoerythrin antibody (Sigma, P8047) diluted 1:1000 in FACS buffer and incubated at 4° C. for 45 min. The cells were washed once with 150 μl FACS buffer and then with 150 μl DPBS, resuspended in 150 μl DPBS containing DAPI (Biotium, 40043) at 1:10.000 and read on the BDCantoII or iQue (Intellicyt).

cMSLN-His-Avi = molecular target: T1, cMSLN-His-Avi; assay: SPR, mAb2 captured on Protein G, cMSLN-His-Avi in solution
Protocol: (§3) The association time was 5 min and the dissociation time was 5 min. Running buffer was HBS-EP (GE Healthcare BR100188). Flow cells were regenerated by injecting Glycine-HCl pH2.1 at a flow rate of 30 μl/min for 15 seconds. The data was analysed as described in Example 7.1.

[3] = molecular target: T3, endogenous cell surface human MSLN; assay: flow cytometry, NCI-H226 cells
Protocol: as §1, §2

[4] = molecular target: T2, human CD137 on primary human CD8+ T …; assay: cell-based or functional assay; remark: listed apart in the source
hMSLN-His-Avi [5] = molecular target: T4, hMSLN-His-Avi (human, UniProt Q13421 296-598, single biotin on the Avi tag in the biotinylated form); assay: SPR, mAb2 captured on Protein G, hMSLN-His-Avi in solution
T4 construct: Monomeric; also called human MSLN-His-Avi; hMSLN-Avi-His
T4 sequence (Q13421 other isoform, or with tags, fused parts or gaps): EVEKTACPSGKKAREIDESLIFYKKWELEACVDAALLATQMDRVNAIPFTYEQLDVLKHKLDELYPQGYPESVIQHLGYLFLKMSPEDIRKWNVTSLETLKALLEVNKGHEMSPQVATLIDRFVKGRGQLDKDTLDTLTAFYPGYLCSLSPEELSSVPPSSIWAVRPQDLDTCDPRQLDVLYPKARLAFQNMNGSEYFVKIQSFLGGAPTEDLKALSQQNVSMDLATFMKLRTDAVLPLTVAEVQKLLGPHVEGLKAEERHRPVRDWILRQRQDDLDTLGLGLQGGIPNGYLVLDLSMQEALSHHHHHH
Protocol: as §3

hMSLN-His-Avi [6] = molecular target: T4, hMSLN-His-Avi; assay: SPR, hMSLN-His-Avi immobilised ~100 RU, mAb2 injected
Protocol: (§4) 7.1 Binding of CD137/MSLN mAb2 to Human MSLN Under Avid Conditions—Antigen Capture Method Binding of all mAb^2 to MSLN immobilised on a BIAcore chip was tested to determine the binding affinity to human MSLN under avid conditions, where a high concentration of immobilised antigen is available to allow the antibody to bind avidly. […] The association time was 5 min and the dissociation time was 10 min. Running buffer was HBS-EP (GE Healthcare BR100188). Flow cells were regenerated by injecting Glycine-HCl pH1.5 at a flow rate of 30 μl/min for 30 seconds. Data were analysed by double referencing against a flow cell which was intentionally left blank (no antigen coating). The binding kinetics were fitted with a 1:1 Langmuir model to generate binding association (k_a) and dissociation (k_d) rates. Equilibrium binding constants (K_D) were calculated by dividing the dissociation rate by the association rate for each sample. Data analysis was performed with BiaEvaluation software version 3.2.

hMSLN-His-Avi [7] = molecular target: T4, hMSLN-His-Avi; assay: ratio of SPR KDs
Protocol: as §4, §3

hMSLN-His-Avi [8] = molecular target: T4, hMSLN-His-Avi; assay: ratio of SPR KDs; remark: listed apart in the source
hMSLN-His-Avi [9] = molecular target: T4, hMSLN-His-Avi; assay: SPR, hMSLN-His-Avi immobilised
hMSLN-His-Avi [10] = molecular target: T4, hMSLN-His-Avi; assay: SPR, hMSLN-His-Avi in solution
[11] = molecular target: T2, human CD137 on primary human CD8+ T …; assay: cell-based or functional assay; remark: listed apart in the source

Binder	IL-2 release EC50, CD8+ T cell assay [1]	EC50 [2]	Emax (MFI) [2]	Kd (cMSLN-His-Avi)	EC50 [3]	Emax (MFI) [3]	Emax (IL-2 pg/ml), NCI-H226 co-culture, Donor A [4]	Emax (IL-2 pg/ml), NCI-H226 co-culture, Donor B [4]	IL-2 release EC50, NCI-H226 co-culture, Donor A [4]	IL-2 release EC50, NCI-H226 co-culture, Donor B [4]	Kd (hMSLN-His-Avi [5])	Kd (hMSLN-His-Avi [6])	KD ratio in solution/immobilised human MSLN (hMSLN-His-Avi [7])	ratio of KD in solution/immobilised (hMSLN-His-Avi [8])	Kd (hMSLN-His-Avi [9])	Kd (hMSLN-His-Avi [10])	IL-2 release EC50, NCI-H226 co-culture, +2 nM sMSLN [11]	IL-2 release EC50, NCI-H226 co-culture, +20 nM sMSLN [11]	IL-2 release EC50, NCI-H226 co-culture, no sMSLN [11]	fold change of IL-2 EC50 with 20 nM sMSLN against none, NCI-H226 co-culture [1]
B1	0.5 nM																			
B2		9.49 nM	774000 MFI	14.2 nM	4.02 nM	689000 MFI	1780 pg/mL	1000 pg/mL	0.06 nM	0.04 nM	19.6 nM	2.3 nM	9							
B3														2.8	19.8 nM	55.9 nM				
B4											7.6 nM	10.7 nM	0.7	0.7	10.7 nM	7.6 nM	0.13 nM	0.684 nM	0.122 nM	> 4 fold
B5		2.68 nM	688000 MFI	33.1 nM	1.47 nM	634000 MFI	2060 pg/mL	932 pg/mL	0.67 nM	0.23 nM	57.9 nM	3.19 nM	18							
B6		2.31 nM	686000 MFI	1.06 nM	0.613 nM	801000 MFI	2110 pg/mL		0.05 nM		5.84 nM	0.78 nM	7							6.6 fold
B7		5.24 nM	675000 MFI	57.2 nM	3.4 nM	647000 MFI	2120 pg/mL	1090 pg/mL	1.29 nM	0.61 nM	86.6 nM	4.74 nM	18							
B8		2.13 nM	625000 MFI	44.2 nM	1.29 nM	618000 MFI	1960 pg/mL	975 pg/mL	0.64 nM	0.23 nM	56.2 nM	3.09 nM	18							
